Experimental data from publication PMC3121535 (Journal of molecular biology, 2010).
Where no end group is shown, it is not given here. [ ]: non-standard residue; d: D form. pS = N[C@@H](COP(=O)(O)O)C(=O)O

How the values were obtained:
[1] = target: SERCA (sarcoplasmic reticulum calcium ATPase); assay: 2D co-crystal frequency, negative-stain EM; details: sites S16
cryo-EM structure = target: the molecule itself; assay: cryo-EM structure
SDS-PAGE = target: the molecule itself; assay: SDS-PAGE

Molecule | stoichiometry N (cryo-EM structure) | further results
phospholamban (PLB) (from UniProt P26678) PKA-phosphorylated wild-type PLB |  | other: crystals per grid square ([1]; reference: non-phosphorylated wild-type PLB): weaker; reference 3.1 ±0.5 (n = 7)
phospholamban (PLB) (from UniProt P26678) PKA-phosphorylated K27A PLB |  | other: crystals per grid square ([1]; reference: non-phosphorylated K27A PLB): weaker; reference 5 ± 1 (n = 6)
wild-type phospholamban (PLB) (natural protein, human, UniProt P26678 1-52, looked up) MEKVQYLTRSAIRRASTIEMPQQARQKLQNLFINFCLILICLLLICIIVMLL | 5 | 
phospholamban gain-of-function mutant Lys27-to-Ala (K27A) (natural protein, human, UniProt P26678 1-52, looked up) MEKVQYLTRSAIRRASTIEMPQQARQALQNLFINFCLILICLLLICIIVMLL | 5 | 
phosphorylated K27A phospholamban (Ser16, by PKA) (natural protein, human, UniProt P26678 1-52, looked up, cysteine pairing not given here) MEKVQYLTRSAIRRA[pS]TIEMPQQARQALQNLFINFCLILICLLLICIIVMLL |  | stoichiometry N (SDS-PAGE): 5
phosphorylated wild-type phospholamban (Ser16, by PKA) (natural protein, human, UniProt P26678 1-52, looked up, cysteine pairing not given here) MEKVQYLTRSAIRRA[pS]TIEMPQQARQKLQNLFINFCLILICLLLICIIVMLL | 5 | 
